Results taken from patent US20150173367.

Test system: RepN (N-terminal 191 residues of TYLCV Rep) (Tomato yellow leaf curl virus)
Assay: EMSA
Conditions: 10 mM Tris-HCl, 100 mM NaCl, 5 mM MgCl2, 0.1 mM ZnCl2, pH 7.5, on ice

TYLCV replication origin DNA containing Rep-binding direct repeats
Kd: 30 nM
